In patent US20190315873A1 (AGOMAB THERAPEUTICS, published 2019):
Positions count from the first letter of the chain named.

B1: 71C3 llama-human chimeric mAb (human IgG1/lambda) (antibody, V domains shown)
VH: QLQLVESGGGLVQPGGSLRLSCAASGFTFSSHAMSWVRQAPGKGLEWVSAINSGGGSTSYADSVKGRFTISRDNAKNTLYLQMNSLKPEDTAVYYCAKELRFDLARYTDYEAWDYWGQGTQVTVSS
VL: SYELTQPSALSVTLGQTAKITCQGGSLGSSYAHWYQQKPGQAPVLVIYDDDSRPSGIPERFSGSSSGGTATLTISGAQAEDEGDYYCQSADSSGNAAVFGGGTHLTVLQ
B2: 71A3 llama-human chimeric mAb (human IgG1/lambda) (antibody, V domains shown)
VH: EVQLVESGGGLVQPGGSLRLSCAASGFSFKDYDITWVRQAPGKGLEWVSTITSRSGSTSYVDSVKGRFTISGDNAKNTLYLQMNSLKPEDTAVYYCAKVYATTWDVGPLGYGMDYWGKGTLVTVSS
VL: B1 VL
B3: 71D4 llama-human chimeric mAb (human IgG1/lambda) (antibody, V domains shown)
VH: B1 VH with Q1E, S31G, H32Y, A33G, A50D, E99D, L100M, F102L, D103Y, T108N
VL: B1 VL with Y2S, E3A
B4: DN-30 mouse anti-human MET antibody (antibody, from another filing, V domains shown)
VH: QVQLQQPGTELVKPGASVKLSCKASGYTFTSYWIHWVKQRPGQGLEWIGEINPSSGRTNYNEKFKNKVTVTVDKSSTTAYMQLSNLTSEDSAVYYCASRGYWGQGTTLTVSS
VL: DIVLTQSPASLAVSLGQRATISCKASQSVDYDGGSYMSWFQQRPGQPPKLLISAASNLESGIPARFSGSGSGTDFTLNIHPVEEEDVATYYCQQSYEDPLTFGAGTKLELKR
B5: 71G3 llama-human chimeric mAb (human IgG1/lambda) (antibody)
heavy: QVQLVESGGGLVQPGGSLRVSCAASGFTFSTYYMSWVRQAPGKGLEWVSDIRTDGGTYYADSVKGRFTMSRDNAKNTLYLQMNSLKPEDTALYYCARTRIFPSGYDYWGQGTQVTVSSASTKGPSVFPLAPSSKSTSGGTAALGCLVKDYFPEPVTVSWNSGALTSGVHTFPAVLQSSGLYSLSSVVTVPSSSLGTQTYICNVNHKPSNTKVDKKVEPKSCDKTHTCPPCPAPELLGGPSVFLFPPKPKDTLMISRTPEVTCVVVDVSHEDPEVKFNWYVDGVEVHNAKTKPREEQYNSTYRVVSVLTVLHQDWLNGKEYKCKVSNKALPAPIEKTISKAKGQPREPQVYTLPPSRDELTKNQVSLTCLVKGFYPSDIAVEWESNGQPENNYKTTPPVLDSDGSFFLYSKLTVDKSRWQQGNVFSCSVMHEALHNHYTSEVFVPQSRKVI
light: QAVVTQEPSLSVSPGGTVTLTCGLSSGSVTTSNYPGWFQQTPGQAPRTLIYNTNSRHSGVPSRFSGSISGNKAALTIMGAQPEDEADYYCSLYPGSTTVFGGGTHLTVLQPKAAPSVTLFPPSSEELQANKATLVCLISDFYPGAVTVAWKADSSPVKAGVETTTPSKQSNNKYAASSYLSLTPEQWKSHRSYSCQVTHEGSTVEKTVAPTECS
B6: 71D6 llama-human chimeric mAb (human IgG1/lambda) (antibody)
heavy: ELQLVESGGGLVQPGGSLRLSCAASGFTFSSYGMSWVRQAPGKGLEWVSAINSYGGSTSYADSVKGRFTISRDNAKNTLYLQMNSLKPEDTAVYYCAKEVRADLSRYNDYESYDYWGQGTQVTVSSASTKGPSVFPLAPSSKSTSGGTAALGCLVKDYFPEPVTVSWNSGALTSGVHTFPAVLQSSGLYSLSSVVTVPSSSLGTQTYICNVNHKPSNTKVDKKVEPKSCDKTHTCPPCPAPELLGGPSVFLFPPKPKDTLMISRTPEVTCVVVDVSHEDPEVKFNWYVDGVEVHNAKTKPREEQYNSTYRVVSVLTVLHQDWLNGKEYKCKVSNKALPAPIEKTISKAKGQPREPQVYTLPPSRDELTKNQVSLTCLVKGFYPSDIAVEWESNGQPENNYKTTPPVLDSDGSFFLYSKLTVDKSRWQQGNVFSCSVMHEALHNHYTSEVFVPQSRKVI
light: QPVLNQPSALSVTLGQTAKITCQGGSLGARYAHWYQQKPGQAPVLVIYDDDSRPSGIPERFSGSSSGGTATLTISGAQAEDEGDYYCQSADSSGSVFGGGTHLTVLQPKAAPSVTLFPPSSEELQANKATLVCLISDFYPGAVTVAWKADSSPVKAGVETTTPSKQSNNKYAASSYLSLTPEQWKSHRSYSCQVTHEGSTVEKTVAPTECS
B7: 71G2 llama-human chimeric mAb (human IgG1/lambda) (antibody)
heavy: EVQLQESGGGLVQPGGSLRLSCAASGFTFSIYDMSWVRQAPGKGLEWVSTINSDGSSTSYVDSVKGRFTISRDNAKNTLYLQMNSLKPEDTAVYYCAKVYGSTWDVGPMGYGMDYWGKGTLVTVSSASTKGPSVFPLAPSSKSTSGGTAALGCLVKDYFPEPVTVSWNSGALTSGVHTFPAVLQSSGLYSLSSVVTVPSSSLGTQTYICNVNHKPSNTKVDKKVEPKSCDKTHTCPPCPAPELLGGPSVFLFPPKPKDTLMISRTPEVTCVVVDVSHEDPEVKFNWYVDGVEVHNAKTKPREEQYNSTYRVVSVLTVLHQDWLNGKEYKCKVSNKALPAPIEKTISKAKGQPREPQVYTLPPSRDELTKNQVSLTCLVKGFYPSDIAVEWESNGQPENNYKTTPPVLDSDGSFFLYSKLTVDKSRWQQGNVFSCSVMHEALHNHYTSEVFVPQSRKVI
light: SSALTQPSALSVSLGQTARITCQGGSLGSSYAHWYQQKPGQAPVLVIYGDDSRPSGIPERFSGSSSGGTATLTISGAQAEDEDDYYCQSTDSSGNTVFGGGTRLTVLQPKAAPSVTLFPPSSEELQANKATLVCLISDFYPGAVTVAWKADSSPVKAGVETTTPSKQSNNKYAASSYLSLTPEQWKSHRSYSCQVTHEGSTVEKTVAPTECS

Columns and labels:
[1] = biological target: human MET on A549 human lung carcinoma cells (human) (UniProt P08581); assay: cell-based or functional assay
[2] = biological target: mouse MET on MLP29 mouse liver precursor cells (mouse) (UniProt P16056); assay: cell-based or functional assay
human MET ECD [3] = biological target: T1, human MET ECD (human, UniProt P08581 25-932); assay: ELISA, mouse-format mAb on MET ECD
T1 construct: range 1-932; recombinant ECD made by standard protein engineering; also called hMET; human MET extracellular domain
Procedure: (§1) In order to directly determine whether—and to what extent—the prior art agonistic anti-MET antibodies cross-reacted with mouse MET, and to compare them to our human/mouse equivalent anti-MET antibodies, we performed an ELISA assay. Since all prior art antibodies were obtained or engineered with a mouse IgG/A format, we employed the mouse IgG/A version of 71G3, 71D6 and 71G2. Human or mouse MET ECD was immobilized in solid phase (100 ng/well in a 96-well plate) and exposed to increasing concentrations of antibodies (0-40 nM) in solution. […] Among the antibodies tested, only 71G3, 71D6 and 71G2 bound to both human and mouse MET, and they did so with indistinguishable affinities and capacities.

mouse MET ECD [4] = biological target: T2, mouse MET ECD (mouse, UniProt P16056 25-931); assay: ELISA, mouse-format mAb on MET ECD
T2 construct: range 1-931; recombinant ECD; also called mMET; mouse MET extracellular domain
Procedure: as §1

human MET ECD [5] = biological target: T1, human MET ECD; assay: ELISA: MET ECD immobilized (100 ng/well), mAb in human IgG1/lambda format in solution (0-40 nM), HRP anti-human Fc
From the text: (§2) To this end, we investigated whether our human/mouse equivalent anti-MET antibodies cross-reacted with MET from other species, including rat (Rattus norvegicus) and cynomolgus monkey (Macaca fascicularis). […] Human and mouse MET ECD were used as controls. A restricted panel of antibodies representative of both SEMA binders (71D6, 71C3, 71D4, 71A3, 71G2) and PSI binders (76H10, 71G3) was selected. The 5D5 prior art antibody was used as control. MET ECD proteins were immobilized in solid phase (100 ng/well in a 96-well plate) and exposed to increasing concentrations (0-40 nM) of antibodies (with human constant regions) in solution. […] We conclude that the 71D6, 71C3, 71D4, 71A3, 71G2, 76H10 and 71G3 antibodies bind with similar affinity and capacity to human MET, mouse MET, rat MET and simian MET, at least as determined by ELISA.

monkey MET ECD = biological target: T3, monkey MET ECD (cynomolgus monkey, UniProt A0A2K5UM36 25-932); assay: as above
T3 construct: also called simian MET; cynomolgus monkey MET
T3 sequence (A0A2K5UM36 entry or part of it limits assumed): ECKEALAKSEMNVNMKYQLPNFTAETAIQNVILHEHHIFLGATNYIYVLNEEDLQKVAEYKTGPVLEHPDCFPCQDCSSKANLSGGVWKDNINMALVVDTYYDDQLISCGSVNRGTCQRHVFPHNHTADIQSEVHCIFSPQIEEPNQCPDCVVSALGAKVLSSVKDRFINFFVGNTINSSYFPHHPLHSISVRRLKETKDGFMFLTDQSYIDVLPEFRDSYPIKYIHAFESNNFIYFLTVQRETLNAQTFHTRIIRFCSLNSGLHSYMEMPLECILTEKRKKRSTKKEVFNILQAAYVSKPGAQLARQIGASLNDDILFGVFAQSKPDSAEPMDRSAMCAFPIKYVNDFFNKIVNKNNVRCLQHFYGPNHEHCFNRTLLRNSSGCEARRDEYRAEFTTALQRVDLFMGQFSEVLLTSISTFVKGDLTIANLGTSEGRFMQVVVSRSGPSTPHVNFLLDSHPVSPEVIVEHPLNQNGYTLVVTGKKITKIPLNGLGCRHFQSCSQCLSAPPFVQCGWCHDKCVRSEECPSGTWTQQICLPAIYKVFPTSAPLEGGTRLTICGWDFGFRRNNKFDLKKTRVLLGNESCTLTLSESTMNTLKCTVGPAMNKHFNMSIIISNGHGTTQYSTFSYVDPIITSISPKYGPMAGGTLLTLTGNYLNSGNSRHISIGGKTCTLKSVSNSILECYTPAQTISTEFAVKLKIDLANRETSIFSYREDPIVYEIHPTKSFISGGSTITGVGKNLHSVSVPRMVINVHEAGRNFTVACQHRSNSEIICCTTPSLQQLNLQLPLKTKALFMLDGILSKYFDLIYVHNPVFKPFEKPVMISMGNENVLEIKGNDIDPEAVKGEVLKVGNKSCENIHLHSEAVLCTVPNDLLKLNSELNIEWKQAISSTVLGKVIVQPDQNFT
From the text: as §2

mouse MET ECD [6] = biological target: T2, mouse MET ECD; assay: as above
From the text: as §2

[7] = biological target: human MET ECD mutant D (mutations 1, 2) (human) (UniProt P08581); assay: ELISA on mutant human MET ECD
[8] = biological target: human MET ECD mutant H (mutations 2, 4) (human) (UniProt P08581); assay: ELISA on mutant human MET ECD
[9] = biological target: human MET ECD mutant E (mutations 2, 3, 4) (human) (UniProt P08581); assay: ELISA on mutant human MET ECD
[10] = biological target: human MET ECD mutant A (mutations 1, 2, 3) (human) (UniProt P08581); assay: ELISA on mutant human MET ECD
rat MET ECD (rat) = rat MET ECD (rat) (UniProt P97523); assay: ELISA: MET ECD immobilized (100 ng/well), mAb in human IgG1/lambda format in solution (0-40 nM), HRP anti-human Fc
Sequence of rat MET ECD (rat) (P97523 25-931 limits assumed, form in doubt): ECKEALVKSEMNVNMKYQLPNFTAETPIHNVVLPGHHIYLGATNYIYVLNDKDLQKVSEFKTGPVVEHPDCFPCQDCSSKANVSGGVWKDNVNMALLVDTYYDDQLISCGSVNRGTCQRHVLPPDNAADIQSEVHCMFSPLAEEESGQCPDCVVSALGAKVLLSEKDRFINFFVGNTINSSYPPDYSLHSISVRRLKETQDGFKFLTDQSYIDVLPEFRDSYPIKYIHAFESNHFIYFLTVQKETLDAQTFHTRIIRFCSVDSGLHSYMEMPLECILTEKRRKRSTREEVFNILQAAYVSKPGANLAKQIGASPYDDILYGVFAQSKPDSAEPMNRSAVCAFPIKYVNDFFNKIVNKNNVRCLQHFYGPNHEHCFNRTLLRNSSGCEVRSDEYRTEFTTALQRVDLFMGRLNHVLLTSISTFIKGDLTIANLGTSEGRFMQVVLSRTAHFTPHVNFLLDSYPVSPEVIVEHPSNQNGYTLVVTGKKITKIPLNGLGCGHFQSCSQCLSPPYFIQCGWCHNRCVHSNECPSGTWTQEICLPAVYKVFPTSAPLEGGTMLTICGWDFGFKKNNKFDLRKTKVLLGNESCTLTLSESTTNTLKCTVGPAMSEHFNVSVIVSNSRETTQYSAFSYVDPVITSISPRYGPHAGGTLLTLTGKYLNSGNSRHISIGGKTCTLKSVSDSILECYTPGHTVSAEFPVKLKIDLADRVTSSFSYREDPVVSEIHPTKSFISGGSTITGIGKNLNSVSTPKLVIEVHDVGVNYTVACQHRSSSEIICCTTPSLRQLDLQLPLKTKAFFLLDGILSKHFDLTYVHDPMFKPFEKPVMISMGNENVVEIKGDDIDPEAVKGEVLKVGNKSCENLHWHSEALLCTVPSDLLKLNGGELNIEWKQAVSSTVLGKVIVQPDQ

[11] = biological target: human MET ECD mutant I (mutations 6, 7, 8) (human) (UniProt P08581); assay: ELISA on mutant human MET ECD
[12] = biological target: human MET ECD mutant J (mutations 6, 7) (human) (UniProt P08581); assay: ELISA on mutant human MET ECD

| Molecule | EC50 (read off the curve) (human MET ECD [5]) | EC50 (read off the curve) (monkey MET ECD) | EC50 (read off the curve) (mouse MET ECD [6]) | % binding (EMAX) vs WT MET ECD [7] | % binding (EMAX) vs WT MET ECD [8] | % binding (EMAX) vs WT MET ECD [9] | % binding (EMAX) vs WT MET ECD [10] | EC50 (read off the curve) (rat MET ECD (rat)) | also measured |
| --- | --- | --- | --- | --- | --- | --- | --- | --- | --- |
| recombinant human HGF (from UniProt P14210 32-728) (ligand) |  |  |  |  |  |  |  |  | phospho-MET ELISA EC50 [1]: 0.19 nM; phospho-MET ELISA EMAX (% HGF activity) [1]: 100 |
| recombinant mouse HGF (from UniProt Q08048 33-728) (ligand) |  |  |  |  |  |  |  |  | phospho-MET ELISA EC50 [2]: 0.23 nM; phospho-MET ELISA EMAX (% HGF activity) [2]: 100 |
| 5D5 anti-human MET antibody, mouse IgG1/lambda format |  |  |  |  |  |  |  |  | EC50 (human MET ECD [3]): 0.197 nM; EMAX (human MET ECD [3]): 3.16 OD450; EC50 (mouse MET ECD [4]): > 40 nM |
| B1 | ~0.1 nM | ~0.1 nM | ~0.1 nM | 102% | 61.6% | 59.6% | 99.8% | 0.3 nM |  |
| B2 | ~0.09 nM | ~0.1 nM | ~0.07 nM | 128% | 76.7% | 65.4% | 117% | 0.1 nM |  |
| B3 | ~0.2 nM | ~0.1 nM | ~0.2 nM | 120% | 58.7% | 57.2% | 114% | 0.2 nM |  |
| B4 |  |  |  |  |  |  |  |  | EC50 (human MET ECD [3]): 0.067 nM; EMAX (human MET ECD [3]): 3.06 OD450; EC50 (mouse MET ECD [4]): > 40 nM |
| B5 | ~0.08 nM | ~0.04 nM | ~0.04 nM |  |  |  |  | 0.1 nM | % binding (EMAX) vs WT MET ECD [11]: 100%; % binding (EMAX) vs WT MET ECD [12]: 91.2% |
| B6 | ~0.1 nM | ~0.1 nM | ~0.1 nM | 128% | 38.6% | 43.6% | 103% | 0.1 nM |  |
| B7 | ~0.1 nM | ~0.07 nM | ~0.06 nM | 114% | 40.2% | 41.4% | 92.1% | 0.1 nM |  |
